Here are results for eleven molecules from US20230348589A1.

Numbering of substitutions follows the chain as printed.

The chains are these.
B1: PA2R3-P1F1 (chimeric) (antibody, V domains shown)
VH: EVQLQQSGAELMKPGASVKISCKATGYTFSSYWIEWVKQRPGHGLEWIGEILPGSGSTNYNEKFKGKATFTADTSSNTAYMQLSSLTSEDSAVYYCARGAWLLSYWYFDVWGAGTSVTVSS
VL: DIQMMQSTSSLSASLGDRVTISCSASQGISNYLNWYQQKPDGTVKLLIYYTSSLHSGVPSRFSGSGSGTQFSLKINSLQPEDFGSYYCQHHYGTPYTFGGGTKLELKR
B2: PA2LR3-P1G6 (chimeric) (antibody, V domains shown)
VH: EVQLQQSGAELVRPGSSVKISCKASGYAFSYYWMNWVKQRPGQGLEWIGQIYPGDGDTNYNGKFKGKATLTVDKSSSTAYMQLSSLTSEDSAVYFCARSHGNYFAYWGQGTLVTVSA
VL: DIVLSQSPAIMSASLGERVTMTCTASSSVSSSYLHWYQQKPGSSPKLWIYSTSNLASGVPARFSGSGSGTSYSLTISRMEAEDAATYYCQQWSSYPLTFGAGTKLELKR
B3: PA2LR3-P2E5 (chimeric) (antibody, V domains shown)
VH: B2 VH with S30R, Y31D, D57A, N61I, V72A, A105P, Q109H
VL: B2 VL with D1Q, S5T, R78S
B4: PA2LR3-P1H4 (chimeric) (antibody, V domains shown)
VH: B2 VH with A28V, S30G, Y31N, V72A, A105P
VL: B2 VL with D1Q, S5T, R78S
B5: PA2LR3-P4B1 (chimeric) (antibody, human IgG1, kappa, V domains shown)
VH: B2 VH with Y27F, Y31N, Y60F, K67R, T69I, V72A, K74I, S77N, A105P
VL: B2 VL with D1Q, S5T, R78S, Q90H, W92Y, S93H, S94R, Y95S
B6: PA2LR3-P2D3 (chimeric) (antibody, human IgG1, kappa, V domains shown)
VH: B2 VH with V72A, N102S
VL: DIELAQSPASLAVSLGQRATISCRASESVDSYGNSFMHWYQQKPGQPPKLLIYLASNLESGVPARFSGSGSRADFTLTIDPVEADDAATYYCLQYASSPPTFGAGTKLEIKR
B7: PA2LR3-P4C6 (chimeric) (antibody, V domains shown)
VH: B2 VH with V72A, A105P
VL: B2 VL with L4I, S5T, M11V, R78S, L107I
B8: PA2LR3-P2B8 (chimeric) (antibody, V domains shown)
VH: B2 VH with V72A
VL: B2 VL with L4M, S5T, V29I, R78S, Q90H, W92Y, S93H, S94R, Y95S, T98A
B9: PA2LR3-P4G10 (chimeric) (antibody, V domains shown)
VH: B2 VH with S7F, V72A
VL: B2 VL with S5T, R78S, Y95N
B10: PA2LR3-P3B10 (chimeric) (antibody, V domains shown)
VH: B2 VH with V72A, A105P
VL: B2 VL with L4I, S5T, M11V, R78S, L107I
B11: PA2LR3-P3B8 (chimeric) (antibody, V domains shown)
VH: B2 VH with Y27F, Y31N, Y60F, K67R, T69I, V72A, K74I, S77N, A105P
VL: B2 VL with L4M, S5T, S51G, A61V, R78S

As usually defined, the EC50 is the concentration giving half of the maximal effect. A higher EC50 goes with a less potent agent.

Chain of A139 iCAPS (purified human CB1 with ICL3 native sequence replaced with BRIL, in lipid bilayer) (human) (P21554 whole entry): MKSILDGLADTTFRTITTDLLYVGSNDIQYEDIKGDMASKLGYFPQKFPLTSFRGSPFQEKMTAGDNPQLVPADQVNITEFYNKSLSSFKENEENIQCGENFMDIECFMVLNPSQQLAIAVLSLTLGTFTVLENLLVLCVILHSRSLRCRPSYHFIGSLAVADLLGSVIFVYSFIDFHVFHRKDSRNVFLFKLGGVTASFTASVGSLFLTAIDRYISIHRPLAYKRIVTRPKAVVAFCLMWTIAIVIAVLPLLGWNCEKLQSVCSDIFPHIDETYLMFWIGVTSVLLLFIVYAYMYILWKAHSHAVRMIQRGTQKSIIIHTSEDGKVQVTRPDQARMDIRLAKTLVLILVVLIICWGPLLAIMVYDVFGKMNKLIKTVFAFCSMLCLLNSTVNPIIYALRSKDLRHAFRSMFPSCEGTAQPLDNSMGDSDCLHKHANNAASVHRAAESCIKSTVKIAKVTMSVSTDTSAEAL

One assay has as its target A139 iCAPS (purified human CB1 with ICL3 native sequence replaced with BRIL, in lipid bilayer) (human) (UniProt P21554). Briefly: ELISA, purified IgG on CB1 iCAPS. For orientation: ELISA stands for enzyme-linked immunosorbent assay.
B1 registered a 50% effective concentration (EC50) of 1.1 nM.

In the case of B2, the EC50 came out at 35 nM.

The molecule B3 displayed an EC50 of 3.2 nM.

Consider B4, for which the concentration for a half-maximal effect (EC50) was found to be 33.5 nM.

In the case of B5, the concentration giving a half-maximal response (EC50) was 1.41 nM.

For B6, the EC50 was 2.6 nM. This EC50 lies about 1.8-fold higher than the previous one.

As for B7, the concentration giving a half-maximal response (EC50) was 0.4 nM.

Turning to B8, the half-maximal effective concentration (EC50) came out at 1.8 nM.

Regarding B9, the concentration for a half-maximal effect (EC50) amounted to 1.35 nM.

B10 displayed an EC50 of 0.78 nM.

The target in the next assay is A138 iCAPS (purified human CB1 with ICL3 native sequence replaced with protein 1 sequence, in lipid bilayer) (human) (UniProt P21554). Briefly: ELISA, purified IgG on CB1 iCAPS.
Chain of A138 iCAPS (purified human CB1 with ICL3 native sequence replaced with protein 1 sequence, in lipid bilayer) (human) (P21554 whole entry): as above
As to B1, the EC50 is 1.3 nM.

Take B2: the EC50 came to 81 nM.

Regarding B3, the EC50 amounted to 10 nM.

Consider B4, for which the EC50 came out at 21 nM. Compared with the last molecule, the EC50 is about 2.1-fold higher.

The molecule B5 had an EC50 of 1.28 nM.

The molecule B6 showed an EC50 of 4.9 nM.

B7: the half-maximal effective concentration (EC50) is 0.4 nM.

Molecule B8 registered an EC50 of 6.7 nM. This EC50 is about 17-fold higher than that of the molecule before.

For the molecule B11, the concentration for a half-maximal effect (EC50) was 71 nM.

B9 returned an EC50 of 1.19 nM. This EC50 lies about 60-fold lower than the previous one.

The molecule B10 showed a concentration for a half-maximal effect (EC50) of 1.4 nM.
